The target of the experiment is phospholipase C (PLC)-γ2 (chicken (endogenous in DT40)). Put plainly: co-IP.

B1: phosphorylated B cell linker protein (BLNK), from BCR-stimulated DT40 cells (natural protein)
chain: MDKLNKLAVPAGEKFRKLQKMVHDIKKNESGIINKFKKFQNEQVALICKTGKDTWDRLKKKPPPSLPRRDYASEHADNEEEQWSDDFDSDYENPDGHSDSEMYVVPSEENPDDSYEPPPSEQEKKKIPSSFPISRGEYADNRTSHHQLPPINKPLPSTPSSALPRPKKPSLPSPAAKPKLPLKPRECSDDEDNYIVPVDNDDDNYIEPTESSTPPPAKPPVNRFMKPPAKSALPTPPKPSLASDMQEVYEVPEEEEELSPPPVTRFTKPLPATRAQNAEHSHMHSMTRESPKLDASRNILPLPRNRLHPKTDHEANNNDENHSFSNTQESKFPPGAAPSPLPRALKKTSNAVNPAKPCLPSRDTFTVNEDKPTAADRRRGSSHEFPLPPLPSGTPKSSLQKPLVLPKVPEAPSRALGTSPHSSISSISSTADQDAGVHSKAWYAATCDRKTAEDALYRSNKDGSFLIRKSSGQDSRQPYTLVVFYNRRVYNIPIRFIESTRQYALGREKCGEERFDSVAEIVENHQHTSLVLIDSQNNTKDSTKLKYIVRVS
modifications: phosphotyrosine (sites not defined in the paper)
The molecule B1 showed a fold increase of the association in Cbl-deficient against wild-type DT40 cells of 3 fold.

These data come from publication PMC2195830.
